Series [1] is described as follows: Absorption and emission spectral properties in 20% aqueous DMSO. In kind it is physicochemical. The procedure:
The spectral properties of cypate and the cypate-peptide conjugates were determined in 20% aqueous DMSO, which solubilizes all the compounds. […] Absorbance measurements were performed with a Beckman Coulter DU 640 spectrophotometer. The fluorescence spectra were recorded on Fluorolog-3 fluorometer (HORIBA Jobin Yvon Inc., Edison, N.J.). To prepare the stock solutions, a high precision analytical balance was used to weigh >2 mg of each compound, which was dissolved in DMSO. The DMSO solutions were then diluted with water to obtain a final solution of 20% aqueous DMSO. An aliquot (known volume) of the solution was transferred to a cuvette with 1 μL precision micropipettes and diluted with 20% aqueous DMSO solvent mixture to give a working solution that absorbs at <1.0 absorbance unit. Aliquots of the working solution were diluted with 20% aqueous DMSO and used to determine the molar absorptivity of each compound. For fluorescence measurements, probe solutions with 0.1 absorbance units were used to minimize inner filter effects.
Previous studies have shown that this solvent mixture boosts fluorescence intensity and is well tolerated by rodents. Additionally, the dyes and their peptide conjugates are soluble in this solvent mixture, providing a common medium for spectral measurements.
Absorbance spectra were measured on a Beckman Coulter DU 640 UV-Visible spectrophotometer. Fluorescence spectra were recorded on a HORIBA Jobin Yvon Fluorolog-3 fluorometer. Stock solutions (1.0 mM) of the conjugates were prepared by dissolving each sample in 80% aqueous DMSO. UV-Vis and fluorescence measurements were carried out by adding 5.0 μL of the stock solutions via a micropipette into 3 mL of 20% aqueous DMSO in a quartz cuvette.

The target in series [2] is T1, purified human αvβ3 integrin protein (Homo sapiens, UniProt P05106+P06756).
T1 construct: purchased Chemicon International, Inc. (Temecula, Calif.)
The experiment in a line: Competitive αvβ3 integrin receptor binding assay with 125I-echistatin tracer (Example 2). Conditions: Table 3, read-out: IC50. The procedure: The binding affinities were measured based on the competitive binding between purified αvβ3 integrin (ABI) and peptide ligands. Echistatin is a polypeptide that binds irreversibly with high affinity and specificity to ABI. ^125I-echistatin was used as a tracer in ABI binding assays.
Receptor binding assays were performed by using purified human αvβ3 integrin protein from Chemicon International, Inc. (Temecula, Calif.). Assays were carried out using the Millipore Duropore membrane 96-well plates and the Millipore MultiScreen system (Bedford, Mass.). The 96-well membrane plate was blocked with 0.1% Polythylenimine blocking solution overnight at 4° C. ^125I-echistatin (50 nmol/L) was added to the binding buffer (50 mM Tris-HCl, pH 7.4, 100 mM NaCl, 2 mM CaCl2, 1 mM MgCl2, 1 mM MnCl2, 1% BSA) containing integrin protein (50 ng per well in 96-well membrane plate) and ligands in a total volume of 200 μL per well. The concentration range of ligand was between 0.01 μM and 100 μM. The mixtures were incubated for 2 h at room temperature, the ABI was then filtered by centrifugation at 1500 g and washed three times with 0.20 mL of ice-cold binding buffer. The filters containing radioactivity bound ABI were removed using a punch apparatus and counted using a Packard Cobra II Auto-gamma counter (Meriden, Conn.). […] Radiolabeling of ^125I-echistatin (Amersham Biosciences, Piscataway, N.J.) was carried out in a mixture of 0.25% BSA, 5.0% lactose, 0.21% citric acid and aprotinin (0.9 TIU/ml).

For series [3], the system named is A549 tumor. The experiment in a line: In vivo fluorescence optical imaging and ex vivo organ distribution in A549 tumor-bearing nude mice. Conditions: for blocking of Cyp-GRD uptake in the tumor by co-injection: equimolar, 0.3 μmol/kg body weight. The procedure: All in vivo studies were performed in compliance with the Washington University in St Louis Animal Study Committee's requirements for the care and use of laboratory animals in research. Nude mice (18-22 g) were anesthetized with xylazine/ketamine cocktail via intraperitoneal injection and placed in a supine position. The mice were injected subcutaneously with A549 cells (1×10^6) in the lower back of the mice. Tumor masses were palpable at 5-7 days post implant, which reached 5 mm in 10-15 days. Prior to injection of the probe, the mice were anesthetized as described above. A 29-gauge needle was used to inject the probes into the mouse via the lateral tail vein. The molecular probe (100 μL) was injected via the lateral tail vein at 0.3 μmol per kg of body weight. […] [SEQ ID NO:1] were constituted in a vial, and doses of 0.3 μmol per kg of body weight were injected into the A549 tumor-bearing mice.
A non-invasive in vivo continuous wave fluorescence imaging apparatus was used to visualize the distribution and preferential tissue uptake of the cypate-peptide molecular beacons in the nude mice (Achilefu (2004) Technol. Cancer Res. Treat. 3:393-409, incorporated herein by reference). Light from two laser diodes of nominal wavelength 780 nm and nominal power of 50 mW was launched into a fiber optic bundle. Two laser diodes were used to produce as much uniform illumination of the whole animal or organ parts as possible. The nominal 50 mW of incident power was reduced to about 44 mW at the output of the fiber optic bundle. A de-focusing lens in position after the bundle expanded the beam such that nearly the whole animal was illuminated. A Photometrics CCD camera (16 bit, 1024×1024 pixel, back illuminated, thermoelectric Peltier cooled with forced air) was used to capture the emitted photons. An interference filter (830 nm) was mounted in front of the CCD camera input lens such that only emitted fluorescent light from the contrast agent was imaged. Real-time acquisition, display and data processing software (WinView/32) was used to obtain the optical image. The samples were dissolved in 20% aqueous DMSO and animals were injected with doses of 0.3 μmol/kg body weight via the lateral tail vein. Injected volumes were 100 μL for each mouse. Data analysis consisted of subtracting (pixel by pixel) the pre-injection image from the post injection images, and displaying the false color results. Integration of the relative fluorescence intensities of tumor vs. surrounding tissues indicated the extent of selective uptake of the contrast agent. At the completion of the study, the mice were euthanized and some organ parts were excised and rinsed with water. The tissues were placed under the CCD camera and the fluorescence emission from each organ was measured after excitation with the 780 nm laser sources. Tissue parts, instead of whole organs, were used to minimize problems associated with depth-dependent non-linear fluorescence emission. A statistical program in the WinView package was used to estimate the mean fluorescence intensity per organ part.
In vivo optical imaging studies using the cypate-peptide optical probes were performed and analyzed as described above in Example 1. […]

Series [4] concerns A549 cells. The experiment in a line: Cell uptake, internalization and blocking of cypate-peptide conjugates (Example 3). It counts as cell-based, human. The procedure: The ABI-positive cells were incubated with cypate or cypate-peptide conjugates at 37° C. for different time points. A549 cells were grown as detailed above. The human glioblastoma cell line, U87, and the human embryonic kidney cell line, HEK, were purchased from ATTC. U87 and HEK cells were maintained in minimum essential medium (MEM) with 2 mM L-glutamine and Earle's BSS adjusted to contain 1.5 g/L sodium bicarbonate, 0.1 mM nonessential amino acids, and 1.0 mM sodium pyruvate, with 10% fetal calf serum, 100 units/mL penicillin, and 100 units/mL streptomycin. Cells were grown on Lab-Tek slides. The medium was replaced and cells were incubated for various times up to 4 h at 37° C. in the presence of 1 μM of the dye conjugated peptides. For fluorescence microscopy, cells were visualized with an Olympus BX61W1 microscope using 775/50 excitation, 845/55 emission. For subcellular localization studies, 25 nM mitotracker green or 50 nM lysotracker red from Molecular Probes (Eugene, Oreg.) was added during the last 15 min or 60 min of incubation, respectively. […] Relative fluorescence was determined for five different areas of each experimental condition using the Slidebook software, and the results were averaged. The average relative fluorescence for each condition was normalized to cells treated with Cyp-GRD peptide.

Series [5] has as its system A549 cells. The experiment in a line: CyQuant cytotoxicity and proliferation assay. To be noted: 48 hours. It counts as cell-based, human. The procedure: Cells were seeded at 2.5×10^4 cells/well and grown in 96 well plates in the presence of 0−1.5×10^−5 M cypate conjugated peptides for 24 or 48 hours. Cell proliferation was measured using the CyQuant proliferation assay from Molecular Probes (Eugene, Oreg.) per the manufacturer's protocol. Briefly, after incubation the microplate was inverted to remove the media and frozen at −70° C. overnight. The microplate was thawed at room temperature and 200 μL of the CyQuant GR dye/cell-lysis buffer was added to each well. […]
Because the Cyquant assay is based on the adherence of a dye to nucleic acids, the assay is a measure of both proliferative and cytotoxic effects.

Series [6] relates to A549 and A427 cells. The experiment in a line: Cellular internalization of cyclic cypate-RGD conjugates (Example 2). It counts as cell-based. To be noted: 1 μM, 1 h, 37° C. The procedure:
A549 and A427 cells were purchased from ATCC and grown in […] tissue culture flasks or on Lab-Tek chambered slides in Ham's F12K medium with 2 mM L-glutamine supplemented with 1.5 g/L sodium bicarbonate, 10% fetal calf serum, 100 units/ml penicillin and 100 units/mL streptomycin.
Cells were grown to confluence on LabTek microscope slides. After washing with PBS, the cells were incubated with 1 μM of the target compounds for 1 h at 37° C. The medium was removed and the cells washed with PBS. The slides were mounted with anti-fading mounting medium. Cells were visualized with an Olympus microscope system (FV 1000) using 755 excitation and 845 nm emission filters.

Structures are written as SMILES. pIC50: −log10 of the molar value. Where a SMILES comes first, the peptide text is derived from it.

Take `CC1(C)C(/C=C/C=C/C=C/C=C2/N(CCC(=O)NCC(=O)N[C@@H](CCCNC(=N)N)C(=O)NCC(=O)N[C@@H](CC(=O)O)C(=O)N[C@@H](CO)C(=O)N3CCC[C@H]3C(=O)N[C@@H](CCCCN)C(=O)O)c3ccc4ccccc4c3C2(C)C)=[N+](CCC(=O)O)c2ccc3ccccc3c21` [Cyp-RGD, Cypate-GRGDSPK]: in series [1], the “^abεmax” value is on record as 213,726 cm^−1Mol^−1, the “^abλmax” value amounted to 789 nm and the “^emλmax” value is reported as 811 nm. The pIC50 in series [2] is 6.48. The “uptake / retention in A549 tumor” value in series [3] (0.3 μmol per kg via lateral tail vein, fluorescence imaging) is “preferentially localized”. In series [3] (24 h post injection), the “accumulation / retention in nontarget tissues” value was “primarily retained in the liver and the kidneys”; the “tumor uptake compared among the cypate-peptide conjugates” value is reported as “low”. The “internalization / fluorescence intensity in cells” value in series [4] (1 μM, 4 h, 37° C.) is listed as “higher intensity than the linear GRD compound”. Moreover, the “cytotoxicity (CyQuant), longer treatment” value in series [5] is given as “some cytotoxicity”.

On to `CC(C)C[C@@H]1NC(=O)[C@H](CC(=O)O)NC(=O)CNC(=O)[C@H](CCCNC(=N)N)NC(=O)[C@@H](NC(=O)CCN2C(=CC=CC=CC=CC3=[N+](CCC(=O)O)c4ccc5ccccc5c4C3(C)C)C(C)(C)c3c2ccc2ccccc32)CSSC[C@@H](C(N)=O)NC1=O` [Cypate-cyclo(CRGDLC)-NH2] (HELM PEPTIDE1{[CC1(C)C(/C=C/C=C/C=C/C=C2/N(CCC(=O)[*:2])c3ccc4ccccc4c3C2(C)C)=[N+](CCC(=O)O)c2ccc3ccccc3c21].C.R.G.D.L.C.[am]}$PEPTIDE1,PEPTIDE1,2:R3-7:R3$$$V2.0), for which, in series [6], the cellular internalization result is given as “internalized by the cells much better than some of the other compounds”.

Turning to `CC(C)[C@@H]1NC(=O)[C@@H](Cc2ccccc2)NC(=O)[C@H](CC(=O)O)NC(=O)CNC(=O)[C@H](CCCNC(=N)N)NC1=O` [cyclo[RGDfV], reference compound], the “displacement of cypate-GRD from A549 tumor” value in series [3] (blocking peptide given 24 h postinjection of cypate-GRD) is recorded as “unable to displace”. For the same compound, the “blocking of Cyp-GRD uptake in the tumor by co-injection” value is “blocked the uptake” in series [3] (24 h post injection) and “significantly blocked” in series [3] (24 h post injection, listed as cyclo(RGDfV)). In series [4] (pretreatment 15 min at 37° C., antibodies 10 μg/ml), the “blocking of cypate-GRD uptake / internalization in A549 cells” value is listed as “blocked the uptake”.

Usually pIC50 stands for the IC50 on a negative log10 scale, so that one unit is a factor of ten.

For the origin of these results see patent publication US8053415B2, “Compounds having RD targeting motifs” (Washington University in St. Louis, priority 2005, dated 2011).
